According to the supplement of paper PMC10567573:

B1: CASP6 (parent)
chain: TCADRDNLTRRFSDLGFEVKCFND

Variants of: B1
Assay: protein stability index of a GFP-peptide fusion (GPS, HEK-293T) (PSI 1-6); higher = more stable
Settings: c terminus: a fixed tail appended
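Also: lentivirally expressed fusions sorted by FACS into six bins by GFP to DsRed ratio, PSI derived from sequencing read proportions per bin multiplied by bin number.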

Variant | protein stability index
TCADRDNLTRRFSQLGFEVKCFND [D14Q] | 2.93
TCADRDNLTRRFSPLGFEVKCFND [D14P] | 2.47
TCADRDNLTRRFSRLGFEVKCFND [D14R] | 2.45
TCADRDNLTRRFSVLGFEVKCFND [D14V] | 2.43
TCADRDNLTRRFSSLGFEVKCFND [D14S] | 2.46
TCADRDNLTRRFSYLGFEVKCFND [D14Y] | 2.46
TCADRDNLTRRFSWLGFEVKCFND [D14W] | 1.97
TCADRDNLTRRFSTLGFEVKCFND [D14T] | 2.27
TCADRDNLTRRFSNLGFEVKCFND [D14N] | 3.8
TCADRDNLTRRFSDLGFEMKCFND [V19M] | 3.49
TCADRDNLTRRFSDLGFEEKCFND [V19E] | 4.31
TCADRDNLTRRFSDLGFEQKCFND [V19Q] | 3.85
TCADRDNLTRRFSDLGFEKKCFND [V19K] | 3.94
TCADRDNLTRRFSDLGFEHKCFND [V19H] | 3.36
TCADRDNLTRRFSDLGFEDKCFND [V19D] | 4.93
TCADRDNLTRRFSDLGFEWKCFND [V19W] | 2.76
TCADRDNLTRRFSDLGFETKCFND [V19T] | 4.24
TCADRDNLTRRFSDLGFECKCFND [V19C] | 1.95
TCADRDNLTRRFSDLGFELKCFND [V19L] | 2.57
TCADRDNLTRRFSDLGFEFKCFND [V19F] | 2.69
TCADRDNLTRRFSDLGFENKCFND [V19N] | 3.9
TCADRDNLTRRFSDLGFEGKCFND [V19G] | 4.08
TCADRDNLTRRFSDLGFEAKCFND [V19A] | 3.62
TCADRDNLTRRFSDLGFEIKCFND [V19I] | 3.44

Variant | protein stability index
TCADRDNLTRRFSDLGFERKCFND [V19R] | 3.48
TCADRDNLTRRFSDLGFEYKCFND [V19Y] | 3.5
TCADRDNLTRRFSDLGFESKCFND [V19S] | 3.8
TCADRDNLTRRFSDLGFEPKCFND [V19P] | 4.38
TCADRDNLTRRFSDLGFEVPCFND [K20P] | 3.58
TCADRDNLTRRFSDLGFEVGCFND [K20G] | 3.54
TCADRDNLTRRFSDLGFEVVCFND [K20V] | 2.83
TCADRDNLTRRFSDLGFEVACFND [K20A] | 3.76
TCADRDNLTRRFSDLGFEVSCFND [K20S] | 3.17
TCADRDNLTRRFSDLGFEVMCFND [K20M] | 2.57
TCADRDNLTRRFSDLGFEVICFND [K20I] | 2.42
TCADRDNLTRRFSDLGFEVCCFND [K20C] | 2.75
TCADRDNLTRRFSDLGFEVLCFND [K20L] | 3
TCADRDNLTRRFSDLGFEVHCFND [K20H] | 2.89
TCADRDNLTRRFSDLGFEVFCFND [K20F] | 2.87
TCADRDNLTRRFSDLGFEVECFND [K20E] | 3.6
TCADRDNLTRRFSDLGFEVNCFND [K20N] | 3.75
TCADRDNLTRRFSDLGFEVDCFND [K20D] | 4.14
TCADRDNLTRRFSDLGFEVTCFND [K20T] | 3.15
TCADRDNLTRRFSDLGFEVQCFND [K20Q] | 3.37
TCADRDNLTRRFSDLGFEVRCFND [K20R] | 3.32
TCADRDNLTRRFSDLGFEVYCFND [K20Y] | 2.2
TCADRDNLTRRFSDLGFEVWCFND [K20W] | 2.56
TCADRDNLTRRFSDLGFEVKCFPD [N23P] | 3.61

Variant | protein stability index
TCADRDNLTRRFSDLGFEVKCFAD [N23A] | 3.52
TCADRDNLTRRFSDLGFEVKCFFD [N23F] | 2.51
TCADRDNLTRRFSDLGFEVKCFQD [N23Q] | 3.12
TCADRDNLTRRFSDLGFEVKCFTD [N23T] | 3.28
TCADRDNLTRRFSDLGFEVKCFDD [N23D] | 3.41
TCADRDNLTRRFSDLGFEVKCFWD [N23W] | 1.41
TCADRDNLTRRFSDLGFEVKCFHD [N23H] | 2.71
TCADRDNLTRRFSDLGFEVKCFYD [N23Y] | 2.34
TCADRDNLTRRFSDLGFEVKCFID [N23I] | 2.49
TCADRDNLTRRFSDLGFEVKCFSD [N23S] | 3.66
TCADRDNLTRRFSDLGFEVKCFGD [N23G] | 3.23
TCADRDNLTRRFSDLGFEVKCFRD [N23R] | 3.89
TCADRDNLTRRFSDLGFEVKCFMD [N23M] | 2.98
TCADRDNLTRRFSDLGFEVKCFKD [N23K] | 3.41
TCADRDNLTRRFSDLGFEVKCFCD [N23C] | 1.8
TCADRDNLTRRFSDLGFEVKCFED [N23E] | 4.66
TCADRDNLTRRFSDLGFEVKCFVD [N23V] | 2.81
TCADRDNLTRRFSDLGFEVKCFLD [N23L] | 3.8
TCADRDNLTRRFSDLGWEVKCFND [F17W] | 2.44
TCADRDNLTRRFSDLGGEVKCFND [F17G] | 4.34
TCADRDNLTRRFSDLGREVKCFND [F17R] | 2.95
TCADRDNLTRRFSDLGPEVKCFND [F17P] | 4.04
TCADRDNLTRRFSDLGIEVKCFND [F17I] | 3.54
TCADRDNLTRRFSDLGTEVKCFND [F17T] | 3.75

Variant | protein stability index
TCADRDNLTRRFSDLGYEVKCFND [F17Y] | 2.62
TCADRDNLTRRFSDLGAEVKCFND [F17A] | 3.7
TCADRDNLTRRFSDLGNEVKCFND [F17N] | 4.26
TCADRDNLTRRFSDLGDEVKCFND [F17D] | 4.8
TCADRDNLTRRFSDLGKEVKCFND [F17K] | 3.37
TCADRDNLTRRFSDLGQEVKCFND [F17Q] | 4.29
TCADRDNLTRRFSDLGSEVKCFND [F17S] | 4.17
TCADRDNLTRRFSDLGEEVKCFND [F17E] | 4.52
TCADRDNLTRRFSDLGCEVKCFND [F17C] | 3.36
TCADRDNLTRRFSDLGLEVKCFND [F17L] | 4.16
TCADRDNLTRRFSDLGHEVKCFND [F17H] | 3.47
TCADRDNLTRRFSDLGMEVKCFND [F17M] | 3.58
TCADRDNLTRRFSDLGVEVKCFND [F17V] | 3.61
TCADRDNLTRRFSDLGFEVKCFNC [D24C] | 2.41
TCADRDNLTRRFSDLGFEVKCFNH [D24H] | 2.95
TCADRDNLTRRFSDLGFEVKCFNL [D24L] | 2.17
TCADRDNLTRRFSDLGFEVKCFNF [D24F] | 2.11
TCADRDNLTRRFSDLGFEVKCFNE [D24E] | 2.94
TCADRDNLTRRFSDLGFEVKCFNG [D24G] | 2.66
TCADRDNLTRRFSDLGFEVKCFNK [D24K] | 3.02
TCADRDNLTRRFSDLGFEVKCFNA [D24A] | 2.21
TCADRDNLTRRFSDLGFEVKCFNI [D24I] | 1.87
